Test: soluble on expression in E. coli; label from the status in PepcDB or PDB records

Question: With “MMCGGRGTRLDAAAEKPLFEVGGRAMVDHVRAALEAAGRIDTTHAAVSPHAPDTAAHLAATPLSLIETPGDGYVADLTAALDAVGTPVLTVAADLPLLAPAVVDTVVAAADGATTSACVPRALKHELGVSTDADADAWVPTGVNVVGGGDTEATHRSFDARLAVNVNHRSDAAVAARLLAATDRRNHPRLEHHHHHH” as the sequence, how does the “soluble on expression in E. coli” value read?
Answer: not soluble

Question: For “MTLPPDAPSRHRLVHALERTADLLDILGGEDFKSRAYRSAARSLEELNEETPELLAREFTGIPKVGKGIAAELSDFARSGTFAPLEAAAGQLPPGLLDLLGVRGLGPKKIRSLWLAGIDSLERLREAAESGELAGLKGFGAKSAATILENVVFLFEARQRQSLRAGLAVAEELAGALTDLSPAPAGDVRRGLETVRAAELTVTGTPDDVLARLPELTVQGDGVLSGDYEGVPVEIACAPAEARGALDLLRSGEHFAGQVQAAAQARGFTLTAGGLSRGDEVLPTPTEAVVFHALDLPFRPAEYREPEHDDLWQTLPDPAELVTVGDLRGMIHTHSTWSDGGASIREMAEATLTLGHEFLGTADHSRAAYYANGLTIERLREQLKEIRELQRAGLPIVAGSEVDILDDGSLDFPDDVLGELDYVVVSVHSNFTLDAARQTERLIRAVSHPLVTVLGHATGRLLLRRPGYALDLDAVLGACEANGTVVEINANAARLDLDWREALRWRERLKFAINTDAHVPGGLRDARYGVMQARKAGLTPAHVVNSLGRAEFLDFVARQRAARGAPGPADRAHHHHHH”, which “soluble on expression in E. coli” value is on record?
Answer: soluble

Question: Which “soluble on expression in E. coli” value does the source give for “MGSDKIHHHHHHMYQKGVSTREIGHFIEKILGHSYSASTISQVTDVVTEDITQWQQRPLKKRYSVLYLDGTYLKLRREDVANEVVYLVVGVTEEGYREILGFYVGGQESANGWRNILLDLYSRGLEEVLLGVFDGLAGLEEAMKAVYPKADVQRCVVHKVRNALHAVRKKDQPAVAQDFKPIYQANTYEEAKNRFKEFKENWQKRYPKVVATWEKDLDVLLTFLSYPSTIRPMIYTTNIIERTMKEIKKRTKTMNSLPNEKAAEKIVYLQAIDYNERWATRRLRGFGEAYEALQEMFKQRYSGP” here?
Answer: not soluble

Question: With “MGSDKIHHHHHHMFVGFDYGSANCAVGIMQGDEVSLLPLSTDSAYLPSTLYAMDRELIAEAVYRALPAELKADYAKKRAAQLSRARMVRHELDLDAESPAVFVGEQAVAAYLEMPEEGFYVRSPKSFLGATGLRPEQVALFEDIVTLMMQHIKVRAEAVLVQKGMASKDEARITHAVIGRPVNFQGIGGEESNRQAEAILTLAAKRAGFVDVAFLFEPLAAGMDYEAGLKADQTVLVVDVGGGTTDCSVVKMGPSHKASFDRSRDCLGHSGQRIGGNDLDIALAMNAFMPHFGLGSLMSNGKPMPSNPFWNAVAVNDISAQREFATLSTRKLIDELIKEAEQPNLLKRLLKVQQQQLSYQIVRLAERAKIALSDAHTTESSLEFIEAMLSAEVNRDCFENAIEPSLGKIEALMHQALTQAAKSLTGNGLAPEELSVEAGTAECQPDVIYVTGGTARSPAIYAKITSLYPDTPVVVGDHFGSVTAGLTRWAQKHFAQ” as the sequence, how does the “soluble on expression in E. coli” value read?
Answer: not soluble

Question: With “MFSAKKLSPADKLKNISSMLEEIVEDTTVPRNIRAAADNAKNALHNEEQELIVRSATAIQYLDDISEDPNMPIHTRTQIWGIVSELETIKN” as the sequence, how does the “soluble on expression in E. coli” value read?
Answer: not soluble

Question: For “MLTSFGKTLRKLRIDHSERLLDMADKPGVSVAFLSSVEIGKKSVPVGMEEKIIEFYSLDKAMASLLKKEADACVERTSQSNLLIHLVVKLLACFLEI”, which “soluble on expression in E. coli” value is on record?
Answer: not soluble

Question: Which “soluble on expression in E. coli” value does the source give for “MGAKDKATGKSWSDVQQRLQQFHSQEFLNSLRGTTQFAGTDYRSKDLTPKKSRLLADTISAVYLDGYES” here?
Answer: not soluble

Question: With “MSLTAPLPYTRAANLPALLRERILILDGAMGTMIQRYKLTEAQYRGERFASHPVDVKGNNELLLLTRPEVIREIHEQYLAAGADLIETNTFGATTVAQEDYKMAELAYEMNVVAARLAREACDKYSTPDKPRFVAGAFGPTPKTASISPDVNDPGARNISFDQLRDAYYEQGKALLEGGADVFLVETIFDTLNAKAALFAIDQLFEDSGERVPVMISGTVTDASGRILSGQTVEAFWNSLRHAKPITFGLNCALGAALMRPYIAELAKICDTAVSCYPNAGLPNPMSDTGFDETPEVTSSLVDEFAAAGLVNLVGGCCGTTPEHIRAIAERVAQRKPRAWPGQYREAAEGHHHHHH” as the sequence, how does the “soluble on expression in E. coli” value read?
Answer: soluble

Question: For “MAWTFDEKSPIYLQIAYRVKLKIASKELSMGQQLLPVREFAQEAGVNPNTVQRAFQELEKEGLVYSARTSGRFVTEDEKLIDQKRHEIAQTLMKNFVTEMTAIGFSSPEIKTIITDYIEQTGKDL”, which “soluble on expression in E. coli” value is on record?
Answer: not soluble

Question: Which “soluble on expression in E. coli” value does the source give for “SAPGWLKEMRGEHIPETEEYGISSFSFLARRPFHPEKFYHFLHDTEKFGKLIRSKGYFWLATRPQFSGQWNQAGGIAHYGFAAMFWKSVPKKDWPIDEESLNAIEKQWVEPFGDMRQELVFIGQQLDQGAMTNALNECLL” here?
Answer: not soluble

Question: For “MGSDKIHHHHHHMQFSPEQDNALKAVSAWLKEGRSPLFRLFGYAGTGKTTLARYFAETVDGSVQFTAFTGKAAQVLRSKGASNACTIHSLIYCPRGEEEVSDEVTGKKSIAPTFALNRRSAAAQAKLIIVDECSMVDEQLARDLMSFRTPILVLGDPGQLPPISGGGFFSNGVPDFLLSEIHRQARDNPIVRLAMDVREGRDIPYGNYGAARVVTRKEVHQQLVLDADQLLVGINRTRYLYNKRLRVLKGFTAAYPQAGDKLVCLRNDPAKGLLNGSLWKVMTSQKETVKPGVNLLVKPEESERGVVKIKLLKALFENPDSDISWQLKKRYDDFDYGYALTVHKAQGSQWNNVVLFDESFAFRDMSARWLYTGITRAAERLTIVR”, which “soluble on expression in E. coli” value is on record?
Answer: not soluble

Question: For “MGSDKIHHHHHHMTGLSQSQASPMQIQPGNAAFNPWTDAALDTIRDVNQALTLYAEMRVVPAHHDAFLAAIDTVSAKLRVLPGFLSLALKQMSGDSTMVKNYPETYKGVLATAYLDGVAAGTQPYFYNLFVRFADGRAARAAGFEALFETHIHPLLHAMAPRGGDGPELLAYRAVLQSVVAGDRHAIYRGAEEIRSFLRRPVELPERETVTVENHVMVPEDKHAAWEPQVAILLQVAQDTFEPQDEPSGVGLPGARDNRYYRKALSTEILRNAHADGGLRAYIMHGVWESVWDHENSHLDPRFLAAAGPVGAAAVVGPVEPFYLTRRLVVAD”, which “soluble on expression in E. coli” value is on record?
Answer: not soluble

Question: Which “soluble on expression in E. coli” value does the source give for “GPGSAPSKDGHVFEMSRPEQAAYGLAMSLVRWHAFNRFCANCGTATDPTRDVGFSRFCPKCRKQHFPQLVPAVLVAVLDGKGNVILSQRRKESKVLTLLSGFVLHGESAEETVRREVEEESGARVSKVRYIGSQPWPYPYLMMMCYYAVADASPSLVVDASELERVMWVSKQDVRRALEGQHSDMELRGPGTTPYAMLKPWVDGKVDDRGRITKPQSQL” here?
Answer: not soluble

Question: Which “soluble on expression in E. coli” value does the source give for “MSGIFSVYVGNAPFQTTEEELGNFFSSIGQINNVRIVCDRETGRPRGFAFIEFAEEGSAQRAVEQMNGAEFNGRPLRVNLANK” here?
Answer: soluble

Question: Which “soluble on expression in E. coli” value does the source give for “MGSDKIHHHHHHMDRIQEMTLFAALAGQTSFTGVARHVGLSTATVTRAVASLESRLGILLVVRTTRNMRLTKAGQRFAEDCRRLLADLSEAENAAAGVHALPAGTLTVTAPQMFGALHVTPVLTRFLSEYPAVDIRAILVDRVVSMLDEGVDVAVRIGALRDSSLTAIRVGSVRRMVCASPVYLTQHGTPRHPDDLQQHATISTSAPERPPHWAFRVDDQDYSVNVASRLSLTSFQASINAALQHWGLTQVPHYQIREHLHNGRLVCVLEDFEIAPEPVHVVYSEGRRGSSRVRSFVDFCVSALREDLQFEAAG” here?
Answer: not soluble

Reference: the DeepSol protein solubility set
